Experimental data reported in patent US9101618B2, “Method for treating and/or preventing neurodegenerative disease by adiponectin receptor agonist” (TOKYO METROPOLITAN INSTITUTE OF MEDICAL SCIENCE, priority 2011, dated 2015).

Experiments:
AMPK = test: Adiponectin addition (2): signal transduction, phospho-AMPK western blotting; type: cell-based, rat; conditions: 1 μg/mL, 0, 10 and 30 min
Experimental: (§1) The B103 neuroblastoma cells (α (alpha)S) and the B103 neuroblastoma cells (vector) were inoculated on a 5 cm dish and cultured to a state of about 80-90% confluence. Later, the aforementioned cells were washed with PBS, and then cultured in a serum-free medium for four hours. After washing with PBS, the cells were then cultured in a test medium (adiponectin-added group) prepared by adding recombinant human adiponectin (1_μg/mL, trimer, PROSPEC) to a serum-free medium. As a control, there was used a control medium (adiponectin non-added group) prepared by adding thereto PBS instead of recombinant human adiponectin. A culture time was 0, 10 and 30 min when evaluating signal transduction, 0, 1 and 2 hour(s) when evaluating tau phosphorylation. The cells collected were lysed with a cell lysis solution (1% TritonX-100, 1% Nonidet P-40, 50 mM HEPES, 150 mM NaCl, 10% glycerol, 1.5 mM MgCl2, 1 mM EGTA, 100_mM sodium fluoride, a protease inhibitor (NACALAI TESQUE, INC.)). Supernatants were collected after performing centrifugation at 100,000×g for 30 min, and were used as surfactant soluble fractions when performing western blotting. Here, western blotting was performed in accordance with the procedures described in example 1. […]

p38 MAPK = test: Adiponectin addition (2): signal transduction, phospho-p38 MAPK western blotting; type: cell-based, rat; conditions: 1 μg/mL, 0, 10 and 30 min
Experimental: as §1

[1] = target: T1, human α (alpha)-synuclein recombinant protein (Homo sapiens, UniProt P37840); test: Protein-protein interaction of α-synuclein and adiponectin in test tube (western blotting); type: binding; conditions: 48 hours, 37° C.
T1 construct: made in house
Experimental: Human adiponectin recombinant protein (ProSpec, IWAI CHEMICALS COMPANY LTD.) 0.5 μg and human α (alpha)-synuclein recombinant protein (Hashimoto et al., Brain Res. 799:301 (1998)) 1.0 μg were incubated for 48 hours in 100 mM sodium acetate solution at 37° C., 500 rpm (Thermomixer, Eppendorf Co., Ltd.). Later, an analysis via western blotting was performed in accordance with procedures similar to those in example 1 through example 6. Each sample was dissolved in 1× sample buffer without 2ME, and heated at 95° C. for 10 min. With regard to a control experiment, incubation was performed at room temperature. Particularly, instead of α (alpha)-synuclein, BSA (1.0 μg) was incubated with adiponectin.

GSK-3β (beta) = test: Adiponectin addition (2): signal transduction, phospho-GSK-3β western blotting; type: cell-based, rat; conditions: 1 μg/mL, 0, 10 and 30 min
Experimental: as §1

[2] = test system: B103 neuroblastoma cells (α (alpha)S); test: Adiponectin addition (1): α-synuclein aggregation (western blotting of fractions); type: cell-based, rat; conditions: 1 μg/mL, 24 hours, serum-free medium
Experimental: The B103 neuroblastoma cells (α (alpha)S) and the B103 neuroblastoma cells (vector) were prepared and cultured in accordance with the procedures described in example 3. The B103 neuroblastoma cells (α (alpha)S) and the B103 neuroblastoma cells (vector) were inoculated on the 6-well plate and cultured to a state of about 80-90% confluence. After washing with PBS, the aforementioned cells were further cultured for 24 hours in a test medium prepared by adding recombinant human adiponectin (1 μg/mL, trimer, PROSPEC) to a serum-free medium. As a control, there was used a control medium prepared by adding thereto PBS instead of recombinant human adiponectin. After culturing, there were prepared the TBS soluble fraction, the SDS soluble fraction and the formic acid soluble fraction in accordance with the procedures described in example 1. Further, western blotting was performed in accordance with the procedures described in example 1. In order to evaluate α (alpha)-synuclein aggregation, an anti-α (alpha)-synuclein mouse monoclonal antibody (syn-1, Nippon Becton Dickinson Company, Ltd) was used as a primary antibody when performing western blotting, the anti-α (alpha)-synuclein mouse monoclonal antibody being diluted appropriately before use. […]

B1: adiponectin: recombinant human adiponectin (trimer, PROSPEC) added to serum-free medium at 1 μg/mL (protein, UniProt Q15848 19-244, looked up)
Adiponectin: ETTTQGPGVLLPLPKGACTGWMAGIPGHPGHNGAPGRDGRDGTPGEKGEKGDPGLIGPKGDIGETGVPGAEGPRGFPGIQGRKGEPGEGAYVYRSAFSVGLETYVTIPNMPIRFTKIFYNQQNHYDGSTGKFHCNIPGLYYFAYHITVYMKDVKVSLFKKDKAMLFTYDQYQENNVDQASGSVLLHLEVGDQVWLQVYGEGERNGLYADNDNDSTFTGFLLYHDTN
- phosphorylation of AMPK (AMPK): promoted
- phosphorylation of p38 MAPK (p38 MAPK): promoted
- dimer of adiponectin ([1]; 0.5 μg adiponectin incubated with 1.0 μg α-synuclein): further increased
- adiponectin aggregation ([1]; in the presence of α-synuclein, densitometer values of aggregate range): significantly promoted
- phosphorylation of GSK-3β (GSK-3β (beta)): promoted
- α-synuclein in culture supernatant [2]: decreased
- α-synuclein in the formic acid soluble fraction [2]: decreased
